We go through twelve molecules from patent US20230025129A1 (KYMAB, published 2023).

Positions count from the first letter of the chain named.

T1: human matriptase-2 ECD protein his tag (human, UniProt Q8IU80 78-811)
T1 sequence: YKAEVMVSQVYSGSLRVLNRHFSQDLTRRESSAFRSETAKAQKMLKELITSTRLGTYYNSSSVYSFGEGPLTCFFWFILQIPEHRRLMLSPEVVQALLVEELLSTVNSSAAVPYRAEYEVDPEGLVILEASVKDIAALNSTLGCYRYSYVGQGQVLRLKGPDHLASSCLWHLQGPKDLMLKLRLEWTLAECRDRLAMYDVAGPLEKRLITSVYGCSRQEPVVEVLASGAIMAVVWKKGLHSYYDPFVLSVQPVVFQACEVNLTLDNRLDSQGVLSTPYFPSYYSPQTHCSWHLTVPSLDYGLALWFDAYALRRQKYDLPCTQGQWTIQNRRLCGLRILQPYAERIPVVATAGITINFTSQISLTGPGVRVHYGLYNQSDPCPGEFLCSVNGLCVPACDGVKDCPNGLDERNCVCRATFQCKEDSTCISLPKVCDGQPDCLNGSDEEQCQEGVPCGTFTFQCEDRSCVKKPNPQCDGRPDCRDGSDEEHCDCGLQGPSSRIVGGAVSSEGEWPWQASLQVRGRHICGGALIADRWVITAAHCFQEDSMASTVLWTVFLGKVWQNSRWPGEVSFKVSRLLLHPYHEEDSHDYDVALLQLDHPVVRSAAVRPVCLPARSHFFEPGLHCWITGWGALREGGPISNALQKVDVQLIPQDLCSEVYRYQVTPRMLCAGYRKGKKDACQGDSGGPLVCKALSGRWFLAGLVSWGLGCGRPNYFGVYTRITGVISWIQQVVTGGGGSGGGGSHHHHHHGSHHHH

T2: mouse matriptase-2 ECD protein his tag (mouse, UniProt Q9DBI0 80-811)
T2 sequence: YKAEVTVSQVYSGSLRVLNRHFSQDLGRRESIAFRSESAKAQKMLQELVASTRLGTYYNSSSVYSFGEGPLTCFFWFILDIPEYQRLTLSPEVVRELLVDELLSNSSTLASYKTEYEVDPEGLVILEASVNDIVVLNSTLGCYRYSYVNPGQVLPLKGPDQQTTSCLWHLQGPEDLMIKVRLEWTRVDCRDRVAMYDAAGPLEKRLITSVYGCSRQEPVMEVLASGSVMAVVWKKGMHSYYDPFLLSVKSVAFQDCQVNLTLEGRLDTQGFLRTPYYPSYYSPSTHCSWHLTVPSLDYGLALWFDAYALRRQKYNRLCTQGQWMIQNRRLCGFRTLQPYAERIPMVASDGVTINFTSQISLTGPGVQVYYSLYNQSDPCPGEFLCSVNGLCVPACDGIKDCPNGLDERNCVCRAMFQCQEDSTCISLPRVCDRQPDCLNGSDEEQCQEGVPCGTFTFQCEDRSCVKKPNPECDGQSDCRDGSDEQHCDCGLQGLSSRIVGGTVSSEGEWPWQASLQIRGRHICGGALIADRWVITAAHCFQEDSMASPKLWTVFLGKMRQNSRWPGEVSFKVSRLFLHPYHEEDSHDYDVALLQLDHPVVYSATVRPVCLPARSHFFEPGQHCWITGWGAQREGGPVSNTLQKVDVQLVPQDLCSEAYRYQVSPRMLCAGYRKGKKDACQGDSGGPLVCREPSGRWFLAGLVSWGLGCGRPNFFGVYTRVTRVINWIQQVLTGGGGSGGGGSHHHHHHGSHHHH

T3: human MTP-2 expressed on HEK293 cells (human, UniProt Q8IU80 1-811)
T3 sequence: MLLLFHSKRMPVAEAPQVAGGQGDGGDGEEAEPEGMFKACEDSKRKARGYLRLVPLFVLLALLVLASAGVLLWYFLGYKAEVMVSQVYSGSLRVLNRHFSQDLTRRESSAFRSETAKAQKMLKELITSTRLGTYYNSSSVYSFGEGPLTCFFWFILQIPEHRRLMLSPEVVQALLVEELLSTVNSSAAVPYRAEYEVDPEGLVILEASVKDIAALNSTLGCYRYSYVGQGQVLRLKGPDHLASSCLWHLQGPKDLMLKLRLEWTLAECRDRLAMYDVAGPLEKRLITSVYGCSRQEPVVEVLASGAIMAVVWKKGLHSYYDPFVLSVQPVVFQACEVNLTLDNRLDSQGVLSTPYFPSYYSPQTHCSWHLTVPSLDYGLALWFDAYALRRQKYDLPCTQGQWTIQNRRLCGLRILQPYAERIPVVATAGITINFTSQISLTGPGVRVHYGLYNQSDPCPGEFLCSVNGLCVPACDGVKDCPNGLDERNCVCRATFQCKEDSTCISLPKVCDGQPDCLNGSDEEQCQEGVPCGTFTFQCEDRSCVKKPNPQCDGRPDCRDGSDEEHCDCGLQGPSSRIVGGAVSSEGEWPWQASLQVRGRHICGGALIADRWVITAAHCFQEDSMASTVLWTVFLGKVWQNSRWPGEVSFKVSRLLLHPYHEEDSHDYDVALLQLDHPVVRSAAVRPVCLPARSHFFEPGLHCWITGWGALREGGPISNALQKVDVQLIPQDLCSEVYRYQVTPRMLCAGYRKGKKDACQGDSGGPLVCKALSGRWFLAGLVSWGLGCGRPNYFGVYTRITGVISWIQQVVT

B1: NORI-018 (antibody, human IgG4 S228P, lambda, V domains shown)
VH: QLQLVQSGAEVKKPGASVKVSCKASGYTFTTFGIVWVRQAPGQGLEWMGWISGYNGNTKYAQNLQGRVTMTTDTSTSTAYMELRSLRSDDTAIYYCARDRAIAPRFDPWGQGTLVTVSS
VL: SYELTQPPSVSVSPGQAASIPCSGDNLGDNFACWYQQKPGQSPVLVIYQDSKRPSGIPERFSGSNSGNTATLTINGTQAMDEADYYCQAWDSSTVVFGGGTKLTVLG
B2: NORI-020 (antibody, human IgG4 S228P, lambda, V domains shown)
VH: QLQLQESGPGLVKPAETLSLMCTVSGDSISSSHYFWGWIRQPPGKGLEWIGSMYYSGSTYYNPSLKSRVTISVDTSNNQFSLKLRSVTAADTAVYYCVRHNNWGLDNYFDYWGQGTLVTVSS
VL: SYELTQPPSVSVSPGQTARITCSADALPDQYAYWYQQKPGQAPLLVIYKDSERPSGIPERFSGSSSGTIVTLTIRGVQAEDEADYYCQSADSSGSYAVFGGGTKLTVLG
B3: NORI-001 (antibody, human IgG4 S228P, kappa, V domains shown)
VH: QVQLVQSGAEVKKPGASVKVSCKVSGYTLSEFSIHWVRQAPGKGLEWMGGFDPEKGKTIYAQKFQGRVTMTEDTSTDTAYMDLSSLRSEDTAVYYCVTEGHFYGSGVFDFWGQGTLVTVSS
VL: DIQMTQSPSSLSASVGDRVTITCRPSQGLRFDFGWYQQRPGKAPRRLIYAASILQSGVPSRFSGSGSGTEFTLTISSLQPEDFATYYCLQHNNYPWTFGQGTKVEIKR
B4: NORI-007 (antibody, human IgG4 S228P, kappa, V domains shown)
VH: EVQLVESGGGLVKPGRSLRLSCTGSGFTFGDFGMSWFRQAPGKGLEWVCFIRSKPYGGTTDYAPSVKGRFTISRDDSISIAYLQMNSLTTEDTAVYYCSRNDILTGYYIFDYWGQGTQVTVSS
VL: DIQMTQSPSSLSASLGDSITITCQASQDITNYLIWYQHKPGKAPKLLIFDASNLETGVPSRFSGSGSGTDFTFTISSLQPEDYATYYCQQYYNLPLTFGGGTKVDIKR
B5: NORI-002 (antibody, human IgG4 S228P, kappa, V domains shown)
VH: B4 VH with K67R, T71S, I78K, S79G, A81V, T89R, D102E, Q118L
VL: B4 VL with S18R, I19V, Q27H, H38Q, K45R, N53I, Y83F
B6: NORI-004 (antibody, human IgG4 S228P, kappa, V domains shown)
VH: B4 VH with G68D, I78K, S79D, A81V, T89R, D102E, Q118L
VL: B4 VL with S18R, I19V, Q27H, H38Q, K45R, N53I, Y83F
B7: NORI-021 (antibody, human IgG4 S228P, lambda, V domains shown)
VH: QVQLVESGGGLVKPGGSLRLSCAAFGFTFSDYYMGWIRQAPGKGLEWVSHISSSGRTRYYADSVKGRFTISRDNAKNALYLQMDSLRAEDTAVFYCARAQLRYFDWLDYWGQGTLVTVSS
VL: QSVLTQPPSVSAAPGQKVTISCSGSGSNIGNNYVSWYQQVPGTAPKLLIYDNNKRPSGIPDRFSGSKSGTSATLGITGLQTGDEADYYCGTWDSSLSAGVFGGGTKLTVLG
B8: NORI-017 (antibody, human IgG4 S228P, lambda, V domains shown)
VH: QVHLVESGGAVVQPGRSLRLSCAASGFTFSNFDMHWVRQTPGKGLEWVTIIRYDETNIYYTESVKGRFTTSRDNSKNTLYLQMNSLRVEDTAVYYCARGWTGSYVFDYWGQGALVTVSS
VL: QSVLTQPPSVSEAPRQRVTISCSGGSSNIGNNAVNWYQQVPGKAPKLLIHYDDLLPSGVSDRFSGSKSGTSASLAISGLQSEDEADYYCAAWDDSLNGVVFGGGTKLTVLG
B9: NORI-019 (antibody, human IgG4 S228P, lambda, V domains shown)
VH: QVQLVESGGGVVQPGRSLRLSCAASGFTFSNFDMHWVRQAPGKGLEWVAIISYDGSDKYYEDSVKGRFTISRDNSKNTLYLQMNSLRAEDTAIYYCAKDGYGSSLFDHWGQGTLVTVSS
VL: B8 VL with G25S, Y37F, V40L, K43E, A44V, H50Y, A91V, V100L
B10: NORI-015 (antibody, human IgG4 S228P, lambda, V domains shown)
VH: EVQLVESGGGLIQAGRSLRLSCAASGFTFDEHVIYWVRQIPGKGLEWISSISWKSDIIAYADSVKGRFTISRDNAKNALYLQMNSLRAEDTALYYCAREKDGDFYYYYFAMDVWGQGTTVTVSS
VL: QSALTQPPSASGSPGQSVTISCTGTSSNVGYYNYVSWYQQHPGKAPKLMIYEVNKRPSGVPDRFSGSKSANTASLTVSGLQADDEADYYCSSYAGSNKVVFGGGTKLTVLG
B11: NORI-016 (antibody, human IgG4 S228P, lambda, V domains shown)
VH: B10 VH with I34M, S52T
VL: B10 VL
B12: NORI-005 (antibody, human IgG4 S228P, kappa, V domains shown)
VH: EVHLVESGGGLIKPGRSLRLSCTGSGFTFGDFGLSWFRQAPGKGLEWISFIRSKPYGGTTDYAASVKGRFTISRDDSKSVAYLQMNSLKTEDSAVYYCARNEILTGYYIFDYWGQGILVTVSS
VL: DIQMTQSPSSLSASLGDRLTITCQASQDISNYLSWYQLQPGKAPKLLIFDASILETGVPSRFSGSGSGTDFSFTVSSLQPEDIATYYCQQYDNLPLTFGGGTKVDLKR

One assay has as its target T1, human matriptase-2 ECD protein his tag. The experiment in a line: cell-based or functional assay.
With B1, the “Inhibition enzymatic activity human MTP2 protein (IC50)” value was found to be 2.12 nM.

As to B2, the “Inhibition enzymatic activity human MTP2 protein (IC50)” value worked out at 1.72 nM.

For the molecule B3, the “Inhibition enzymatic activity human MTP2 protein (IC50)” value turned out to be 10.1 nM.

On to B4, for which the “Inhibition enzymatic activity human MTP2 protein (IC50)” value stood at 8.79 nM.

B5: the “Inhibition enzymatic activity human MTP2 protein (IC50)” value is 8.53 nM.

Consider B6, for which the “Inhibition enzymatic activity human MTP2 protein (IC50)” value came to 5.9 nM.

Regarding B7, the “Inhibition enzymatic activity human MTP2 protein (IC50)” value was 2.71 nM.

Regarding B8, the “Inhibition enzymatic activity human MTP2 protein (IC50)” value was 1.51 nM.

As for B9, the “Inhibition enzymatic activity human MTP2 protein (IC50)” value stood at 1.54 nM.

For the molecule B10, the “Inhibition enzymatic activity human MTP2 protein (IC50)” value turned out to be 5.51 nM.

Consider B11, for which the “Inhibition enzymatic activity human MTP2 protein (IC50)” value worked out at 10.4 nM.

As to B12, the “Inhibition enzymatic activity human MTP2 protein (IC50)” value came to 5.95 nM.

The next assay has as its target T2, mouse matriptase-2 ECD protein his tag. As to the kind of experiment: cell-based or functional assay.
For the molecule B1, the “Inhibition enzymatic activity mouse MTP2 protein (IC50)” value came out at 0.589 nM.

As to B2, the “Inhibition enzymatic activity mouse MTP2 protein (IC50)” value turned out to be 1.44 nM.

For B3, the “Inhibition enzymatic activity mouse MTP2 protein (IC50)” value is 12.4 nM.

For the molecule B4, the “Inhibition enzymatic activity mouse MTP2 protein (IC50)” value was determined as 39.3 nM.

As for B5, the “Inhibition enzymatic activity mouse MTP2 protein (IC50)” value amounted to 16.2 nM.

Regarding B6, the “Inhibition enzymatic activity mouse MTP2 protein (IC50)” value was determined as 22.4 nM.

Consider B7, for which the “Inhibition enzymatic activity mouse MTP2 protein (IC50)” value amounted to 1.9 nM.

Consider B8, for which the “Inhibition enzymatic activity mouse MTP2 protein (IC50)” value stood at 0.489 nM.

Take B9: the “Inhibition enzymatic activity mouse MTP2 protein (IC50)” value came out at 0.911 nM.

In the case of B10, the “Inhibition enzymatic activity mouse MTP2 protein (IC50)” value was 5.7 nM.

For B11, the “Inhibition enzymatic activity mouse MTP2 protein (IC50)” value is 9.27 nM.

As for B12, the “Inhibition enzymatic activity mouse MTP2 protein (IC50)” value is 12.7 nM.

In the next assay the target is T3, human MTP-2 expressed on HEK293 cells. The experiment in a line: cell-based or functional assay.
B1: the “Inhibition enzymatic activity human MTP2 on cells (IC50)” value came out at 2220 pM.

For the molecule B2, the “Inhibition enzymatic activity human MTP2 on cells (IC50)” value was determined as 146 pM.

With B7, the “Inhibition enzymatic activity human MTP2 on cells (IC50)” value is 8210 pM.

In the case of B8, the “Inhibition enzymatic activity human MTP2 on cells (IC50)” value is 198 pM.

In the case of B9, the “Inhibition enzymatic activity human MTP2 on cells (IC50)” value was 97.8 pM.
